Data published in patent publication US20120231006A1 (Amgen, published 2012).
Numbering of substitutions follows the chain as printed.

B1: mAb 5A1.1 (antibody, human IgG2)
heavy: QVQLVQSGAEVKKPGASVKVPCKASGYTFTDYYINWVRQAPGQGLEWMGWINPNNGGTNYAQKFQGRVTMTRDTSISTAYMELRRLRSDDTAVYYCARERGGYEDWFDPWGQGTLVTVSSASTKGPSVFPLAPCSRSTSESTAALGCLVKDYFPEPVTVSWNSGALTSGVHTFPAVLQSSGLYSLSSVVTVPSSNFGTQTYTCNVDHKPSNTKVDKTVERKCCVECPPCPAPPVAGPSVFLFPPKPKDTLMISRTPEVTCVVVDVSHEDPEVQFNWYVDGVEVHNAKTKPREEQFNSTFRVVSVLTVVHQDWLNGKEYKCKVSNKGLPAPIEKTISKTKGQPREPQVYTLPPSREEMTKNQVSLTCLVKGFYPSDIAVEWESNGQPENNYKTTPPMLDSDGSFFLYSKLTVDKSRWQQGNVFSCSVMHEALHNHYTQKSLSLSPGK
VL: QSVLTQPPSVSGAPGQRVTISCTGSSSNIGAGFDVHWYQQLPVTAPKLLIYGNRNRPSGVPARFSGSKSGTSASLAITGLQAEDEAVYYCQSYDSSLTVFGGGTKLTVL
notes: fully human, Campaign 2; lambda CL-1
B2: mAb 5A4.2 (antibody, human IgG2, lambda, V domains shown)
VH: QVQLVQSGAEVKKPGASVKVSCKASGYTFTDYYMNWVRQAPGQGLEWMGWINPNSGGTKYAQKFQGRVTMTRDTSIRTAYMELSRLRSDDTAVYYCSREYGGNSDWFDPWGQGTLVTVSS
VL: QSVLTQPPSVSGAPGQRVTISCTGSSSNIGAGYDVHWYQQLPGTAPKLLIYGNSNRPSGVPDRFSGSKSGTSASLAITGLQAEDEADYYCQSYDNRLSDSVVIGGGTKLTVQG
notes: fully human IgG2 lambda, Campaign 2
B3: mAb 5B1.1 (antibody, human IgG2, lambda, V domains shown)
VH: B2 VH with M34I, T58S, K59S, R77S, Y80H, S84I, S97A, Y100R, N103I, S104E
VL: QSVLTQPPSVSGAPGQRVTISCTGSSSNIGAGYDVHWYQQLPGTAPKLLIYGNSNRPSGVPDRFSGSKSGTSASLAITKFQAEDEAVYYCQSYGSGLSGVVFGGGTKLTVLG
notes: fully human IgG2 lambda, Campaign 2; also called mAb 5Bl1.1
B4: mAb 5F2.1 (antibody, human IgG2, lambda, V domains shown)
VH: B2 VH with K59H, R77S, S97A, N103Y
VL: B2 VL with S26R, G43R, G52D, T71S, R96S, V102L, Q112L
notes: as for B2
B5: mAb 5C1.1 (antibody, human IgG2, lambda, V domains shown)
VH: B2 VH with S97A
VL: B2 VL with T110A
notes: as for B2

Columns and labels:
[1] = target: T1, hOrai1-mOrai1 ECL2 chimeric protein (human/mouse chimera, UniProt Q96D31 1-301); assay: FACS, 293EBNA transfectants
T1 construct: human Orai1 with mouse ECL2; also called Ch
T1 sequence (Q96D31 other isoform, or with tags, fused parts or gaps mutant): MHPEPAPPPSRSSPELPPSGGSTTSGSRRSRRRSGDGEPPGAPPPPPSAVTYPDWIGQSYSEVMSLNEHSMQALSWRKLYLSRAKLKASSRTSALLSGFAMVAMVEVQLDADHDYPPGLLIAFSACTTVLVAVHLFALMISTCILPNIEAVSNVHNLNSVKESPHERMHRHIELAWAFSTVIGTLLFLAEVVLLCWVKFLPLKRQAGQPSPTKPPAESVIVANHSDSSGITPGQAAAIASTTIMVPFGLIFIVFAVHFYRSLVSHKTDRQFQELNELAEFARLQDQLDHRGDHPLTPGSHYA
Text: FIG. 15A-B illustrates the results of FACS analysis showing binding to human Orai1 extracellular loop 2-mouse Orai1 mutant expressed on the surface of HEK-293-EBNA cells. HEK-293-EBNA cells were transiently transfected with mouse Orai1 mutant where human Orai1 extracellular loop 2 replaced the mouse Orai1 extracellular loop 2 and human Orai1 mutant where mouse Orai1 extracellular loop 2 replaced human extracellular loop 2. Transfected cells were stained first with recombinant monoclonal antibodies then counter-stained with a secondary phycoerythrin-labeled goat (“Gt”) anti-human (“Hu”) IgG F(ab′)₂ antibody fragment and visualized using FACS.
(§1) FACS binding analysis. Transfected 293EBNA cells transiently expressed hOrai1-mOrai1 ECL2 or mOrai1-hOrai1 ECL2 chimera. The transfected cells were harvested at 48 hours post-transfection. Cells transfected with pcDNA3.1 were used as negative controls. Cells were washed once with ice-cold 1×PBS, resuspended in ice-cold FACS buffer (1×D-PBS+2% goat serum), and 2×10⁵ cells in 100 μL were stained per antibody combination. All antibody incubation steps were performed on ice for 1 hour. […] Next, the unlabelled antibody was detected using goat F(ab′)₂ anti-mouse or anti-human IgG-phycoerythrin (IgG-PE), followed by a wash with 200 μL of ice-cold FACS buffer before flow cytometry analysis. Unstained cells and cells stained with detecting antibodies were used as negative controls. The values of relative level of fluorescence were calculated using FCS Express (De Novo Software) and mean values were calculated using log-transformed data (geometric mean). The results of the FACS analysis are shown in FIG. 15A-B, which supports the conclusion that the hOrai1 ECL2 domain is the region of hOrai1 where antibodies of the present invention bind.

[2] = target: human Orai1 (human, UniProt Q96D31 1-301); assay: cell-based or functional assay
Sequence of human Orai1 (Q96D31 whole entry): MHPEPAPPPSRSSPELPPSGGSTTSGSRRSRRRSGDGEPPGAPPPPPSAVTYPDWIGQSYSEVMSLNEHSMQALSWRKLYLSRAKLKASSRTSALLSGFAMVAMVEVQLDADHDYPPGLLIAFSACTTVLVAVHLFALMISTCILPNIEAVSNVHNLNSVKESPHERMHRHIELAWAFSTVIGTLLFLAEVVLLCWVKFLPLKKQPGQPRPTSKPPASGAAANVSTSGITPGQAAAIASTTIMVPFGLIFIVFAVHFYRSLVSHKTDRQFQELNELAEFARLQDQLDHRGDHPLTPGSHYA

[3] = target: T2, mOrai1-hOrai1 ECL2 (VIV) protein (human/mouse chimera, UniProt Q8BWG9 1-304 (mouse entry)); assay: FACS, 293EBNA, RFI-POC grade; set-up: concentration or dose not given beside the values
T2 construct: also called Ch
T2 sequence (Q8BWG9 other isoform, or with tags, fused parts or gaps): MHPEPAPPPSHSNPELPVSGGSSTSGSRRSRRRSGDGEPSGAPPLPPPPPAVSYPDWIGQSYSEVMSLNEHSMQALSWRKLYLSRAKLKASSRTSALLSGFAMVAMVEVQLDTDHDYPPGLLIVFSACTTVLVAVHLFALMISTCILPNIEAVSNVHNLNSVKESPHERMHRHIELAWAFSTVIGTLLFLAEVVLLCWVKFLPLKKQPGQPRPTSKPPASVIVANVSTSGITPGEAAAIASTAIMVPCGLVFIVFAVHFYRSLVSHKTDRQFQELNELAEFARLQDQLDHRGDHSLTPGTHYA
Text: (§2) FIG. 16A-D illustrates the results of FACS analysis showing binding to the indicated mOrai1-hOrai1 ECL2 chimeric mutants expressed on the surface of HEK-293-EBNA cells. Transfected cells were stained first with recombinant monoclonal antibodies then counter-stained with a secondary phycoerythrin-labeled goat (“Gt”) anti-human (“Hu”) IgG F(ab′)₂ antibody fragment and visualized using FACS. In FIG. 16B and FIG. 16D, The values of Relative Fluorescence Intensity as Percent of Control (RFI-POC) are calculated from the relative fluorescence intensity geometric mean (Geo Mean). The geometric mean is an average calculated by multiplying a series of numbers and taking the nth root where n is the number of numbers in the series. It is a statistical average of a set of transformed numbers often used to represent a central tendency in a highly variable data set that minimizes the effects of extreme values.
(§3) Table 11A and Table 11B feature a schematic representation of the POC data from FIG. 16B and FIG. 16D, respectively, where the binding results are recorded as (+++) denoting binding POC from 40% to 100%, (++) for POC of 5% to less than 40%, (+) for POC from 1% to less than 5% and (−) as lack of binding with POC less than 1%.

[4] = target: T3, mOrai1-hOrai1 ECL2 chimeric protein (human/mouse chimera, UniProt Q8BWG9 1-304 (mouse entry)); assay: FACS, 293EBNA, RFI-POC grade; set-up: concentration or dose not given beside the values
T3 construct: mouse Orai1 with human ECL2; also called Ch
T3 sequence (Q8BWG9 other isoform, or with tags, fused parts or gaps mutant): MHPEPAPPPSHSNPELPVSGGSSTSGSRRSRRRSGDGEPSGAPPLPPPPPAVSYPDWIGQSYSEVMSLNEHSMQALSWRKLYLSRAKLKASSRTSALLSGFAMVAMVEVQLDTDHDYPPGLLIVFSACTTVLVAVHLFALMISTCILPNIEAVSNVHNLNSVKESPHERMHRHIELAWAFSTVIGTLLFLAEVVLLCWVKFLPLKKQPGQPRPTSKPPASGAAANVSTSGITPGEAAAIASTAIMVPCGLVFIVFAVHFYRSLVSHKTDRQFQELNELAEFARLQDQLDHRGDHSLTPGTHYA
Text: as §2, §3

[5] = target: T4, mOrai1-hOrai1 ECL2 (HSD) protein (human/mouse chimera, UniProt Q8BWG9 1-304 (mouse entry)); assay: FACS, 293EBNA, RFI-POC grade; set-up: concentration or dose not given beside the values
T4 construct: also called Ch
T4 sequence (Q8BWG9 other isoform, or with tags, fused parts or gaps): as the sequence (Q8BWG9 other isoform, or with tags, fused parts or gaps mutant) above, with V226H, T228D counted along it
Text: as §2, §3

[6] = target: human Orai3 (human, UniProt Q9BRQ5 1-295); assay: FACS, 293EBNA transfectants
Description: (§4) Purified monoclonal antibodies from hybridoma supernantants of the subclones derived from initial hits were assessed for binding to human Orai1, Orai2 and Orai3 expressed on HEK-293-EBNA cells along with vector transfected control parental cells. Cells stained with or without primary mAbs were counter-stained with a secondary phycoerythrin-labeled goat (“Gt”) anti-human (“Hu”) IgG F(ab′)₂ antibody fragment and visualized using FACS.
as §1, with “hOrai1, human Orai2,” for “hOrai1-mOrai1 ECL2”, “human Orai3 (results of binding comparison in FIG. 11A-B), or hOrai1(S218G) (results of binding comparison in FIG. 12A-B); or hOrai1 and hSTIM1; mOrai1 and mouse STIM1; or rat Orai1 and rat STIM1 (results of binding comparison in FIG. 13).” for “mOrai1-hOrai1 ECL2 chimera.”, “[…]” for “100 μL”, “Purified mAbs were assessed by” for “The results of the”, “assay for their ability to specifically bind human Orai1, Orai2 and Orai3 proteins expressed on HEK-293 cells.” for “analysis are shown in FIG. 15A-B, which supports the conclusion that the hOrai1 ECL2 domain is the region of hOrai1 where antibodies of the present invention bind.”

[7] = target: T5, human Orai2 (human, UniProt Q96SN7 1-254); assay: FACS, 293EBNA transfectants
T5 construct: also called hOrai2
T5 sequence (Q96SN7 whole entry): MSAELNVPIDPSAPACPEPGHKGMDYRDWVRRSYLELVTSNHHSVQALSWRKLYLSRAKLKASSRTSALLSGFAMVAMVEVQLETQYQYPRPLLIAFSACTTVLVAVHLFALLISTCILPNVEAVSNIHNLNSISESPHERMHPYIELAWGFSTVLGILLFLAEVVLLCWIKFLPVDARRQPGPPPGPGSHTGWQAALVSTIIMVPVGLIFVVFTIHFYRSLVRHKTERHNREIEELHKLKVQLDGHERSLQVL
Description: as §4
as §1, with “hOrai1, human Orai2,” for “hOrai1-mOrai1 ECL2”, “human Orai3 (results of binding comparison in FIG. 11A-B), or hOrai1(S218G) (results of binding comparison in FIG. 12A-B); or hOrai1 and hSTIM1; mOrai1 and mouse STIM1; or rat Orai1 and rat STIM1 (results of binding comparison in FIG. 13).” for “mOrai1-hOrai1 ECL2 chimera.”, “[…]” for “100 μL”, “Purified mAbs were assessed by” for “The results of the”, “assay for their ability to specifically bind human Orai1, Orai2 and Orai3 proteins expressed on HEK-293 cells.” for “analysis are shown in FIG. 15A-B, which supports the conclusion that the hOrai1 ECL2 domain is the region of hOrai1 where antibodies of the present invention bind.”

[8] = target: T6, rat Orai1 (rat, UniProt Q5M848 1-304); assay: FACS, 293EBNA transfectants with STIM1, thapsigargin
T6 construct: co-expressed with rat STIM1; also called rOrai1
T6 sequence (Q5M848 whole entry): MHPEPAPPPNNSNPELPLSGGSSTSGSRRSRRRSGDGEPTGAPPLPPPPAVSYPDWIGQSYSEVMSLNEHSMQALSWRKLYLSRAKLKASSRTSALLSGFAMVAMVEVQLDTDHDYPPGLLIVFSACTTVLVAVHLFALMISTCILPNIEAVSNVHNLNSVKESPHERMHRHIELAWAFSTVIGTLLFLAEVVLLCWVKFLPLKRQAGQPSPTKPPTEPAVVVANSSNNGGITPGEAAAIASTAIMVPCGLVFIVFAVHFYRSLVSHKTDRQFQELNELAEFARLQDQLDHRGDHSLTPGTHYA
Description: (§5) FIG. 13A-B illustrates the results of FACS analysis showing binding to human Orai1 expressed on the surface of HEK-293-EBNA cells that were treated with 2 μM Thapsigargin. HEK-293-EBNA cells were transiently transfected with human Orai1 and human STIM1, mouse Orai1 and mouse STIM1, rat Orai1 and rat STIM1 and control empty vector. Transfected cells were stained first with recombinant monoclonal antibodies then counter-stained with a secondary phycoerythrin-labeled Gt anti-Hu IgG F(ab′)₂ or Gt anti-Mu IgG F(ab′)₂ antibody fragment, as appropriate, and visualized using FACS.
as §1, with “hOrai1, human Orai2,” for “hOrai1-mOrai1 ECL2”, “human Orai3 (results of binding comparison in FIG. 11A-B), or hOrai1(S218G) (results of binding comparison in FIG. 12A-B); or hOrai1 and hSTIM1; mOrai1 and mouse STIM1; or rat Orai1 and rat STIM1 (results of binding comparison in FIG. 13).” for “mOrai1-hOrai1 ECL2 chimera.”, “[…]” for “100 μL”, “Purified mAbs were assessed by” for “The results of the”, “assay for their ability to specifically bind human Orai1, Orai2 and Orai3 proteins expressed on HEK-293 cells.” for “analysis are shown in FIG. 15A-B, which supports the conclusion that the hOrai1 ECL2 domain is the region of hOrai1 where antibodies of the present invention bind.”

[9] = target: T7, mouse Orai1 (mouse, UniProt Q8BWG9 1-304); assay: as above
T7 construct: co-expressed with mouse STIM1; also called mOrai1
T7 sequence (Q8BWG9 whole entry): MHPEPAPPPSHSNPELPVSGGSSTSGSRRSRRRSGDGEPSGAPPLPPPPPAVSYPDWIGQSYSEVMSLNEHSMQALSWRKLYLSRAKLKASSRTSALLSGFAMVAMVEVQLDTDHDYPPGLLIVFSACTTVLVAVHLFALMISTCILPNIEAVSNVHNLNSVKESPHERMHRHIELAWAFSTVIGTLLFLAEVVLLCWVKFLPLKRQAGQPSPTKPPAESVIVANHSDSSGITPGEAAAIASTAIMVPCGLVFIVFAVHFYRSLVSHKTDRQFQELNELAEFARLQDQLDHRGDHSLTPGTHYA
Description: as §5
as §1, with “hOrai1, human Orai2,” for “hOrai1-mOrai1 ECL2”, “human Orai3 (results of binding comparison in FIG. 11A-B), or hOrai1(S218G) (results of binding comparison in FIG. 12A-B); or hOrai1 and hSTIM1; mOrai1 and mouse STIM1; or rat Orai1 and rat STIM1 (results of binding comparison in FIG. 13).” for “mOrai1-hOrai1 ECL2 chimera.”, “[…]” for “100 μL”, “Purified mAbs were assessed by” for “The results of the”, “assay for their ability to specifically bind human Orai1, Orai2 and Orai3 proteins expressed on HEK-293 cells.” for “analysis are shown in FIG. 15A-B, which supports the conclusion that the hOrai1 ECL2 domain is the region of hOrai1 where antibodies of the present invention bind.”

Binder	binding result [1]	IC50 IFN-γ, whole blood Donor A [2] [nM]	IC50 IFN-γ, whole blood Donor B [2] [nM]	IC50 IL-2, whole blood Donor A [2] [nM]	IC50 IL-2, whole blood Donor B [2] [nM]	POC (percent of control, FACS Geo Mean relative to binding to Ch. 1) [3] [%]	POC (percent of control, FACS Geo Mean relative to binding to Ch. 1) [4] [%]	POC (percent of control, FACS Geo Mean relative to binding to Ch. 1) [5] [%]	binding result [6]	binding result [7]	binding result [8]	binding result [9]
B1	no binding (tested: 1 µg)	8.15	1.66	11.2	5.59	40 to 100	40 to 100	40 to 100	no binding (tested: 1 µg)	no binding (tested: 1 µg)	no binding (tested: 1 µg)	no binding (tested: 1 µg)
B2	no binding (tested: 1 µg)	4.83	2.76	1.88	1.21	40 to 100	40 to 100	40 to 100	no binding (tested: 1 µg)	no binding (tested: 1 µg)	no binding (tested: 1 µg)	no binding (tested: 1 µg)
B3	no binding (tested: 1 µg)	7.4	10.7	2.73	4.45	40 to 100	40 to 100	40 to 100	no binding (tested: 1 µg)	no binding (tested: 1 µg)	no binding (tested: 1 µg)	no binding (tested: 1 µg)
B4	no binding (tested: 1 µg)			4.83	3.79	40 to 100	40 to 100	40 to 100	no binding (tested: 1 µg)	no binding (tested: 1 µg)	no binding (tested: 1 µg)	no binding (tested: 1 µg)
B5	no binding (tested: 1 µg)	5.42	2.41	2.18	1.24	40 to 100	40 to 100	40 to 100	no binding (tested: 1 µg)	no binding (tested: 1 µg)	no binding (tested: 1 µg)	no binding (tested: 1 µg)
